Measurements as given in patent US20240025955.

Tested on: MMP3 resistant rAgrin (SEQ ID NO: 19)

In the case of MMP3, the MMP3 degradation is reported as “is resistant to MMP3 degradation” and the “degradation of Agrin in the presence of increasing amounts of MMP3 for 24 hours” value is reported as “mutation of the MMP-3 cleavage site reduces degradation of Agrin (polypeptide defined by SEQ ID NO: 19)”.
